{"source": "paper PMC5073374", "molecular_target": "Link module from human TSG-6 (Link_TSG6) (human) (UniProt P98066)", "assay": "AUC", "data": [{"substance": "Link module from human TSG-6 (Link_TSG6) (from UniProt P98066 36-133) (domain or fragment)", "values": [{"measurement": "stoichiometry N", "value": 2}]}]}
